Source: patent US20030049259A1

Target: E-cadherin (human) (UniProt P12830)
Experiment: cell-based or functional assay

UniProt P12830, sequence (P12830 155-882): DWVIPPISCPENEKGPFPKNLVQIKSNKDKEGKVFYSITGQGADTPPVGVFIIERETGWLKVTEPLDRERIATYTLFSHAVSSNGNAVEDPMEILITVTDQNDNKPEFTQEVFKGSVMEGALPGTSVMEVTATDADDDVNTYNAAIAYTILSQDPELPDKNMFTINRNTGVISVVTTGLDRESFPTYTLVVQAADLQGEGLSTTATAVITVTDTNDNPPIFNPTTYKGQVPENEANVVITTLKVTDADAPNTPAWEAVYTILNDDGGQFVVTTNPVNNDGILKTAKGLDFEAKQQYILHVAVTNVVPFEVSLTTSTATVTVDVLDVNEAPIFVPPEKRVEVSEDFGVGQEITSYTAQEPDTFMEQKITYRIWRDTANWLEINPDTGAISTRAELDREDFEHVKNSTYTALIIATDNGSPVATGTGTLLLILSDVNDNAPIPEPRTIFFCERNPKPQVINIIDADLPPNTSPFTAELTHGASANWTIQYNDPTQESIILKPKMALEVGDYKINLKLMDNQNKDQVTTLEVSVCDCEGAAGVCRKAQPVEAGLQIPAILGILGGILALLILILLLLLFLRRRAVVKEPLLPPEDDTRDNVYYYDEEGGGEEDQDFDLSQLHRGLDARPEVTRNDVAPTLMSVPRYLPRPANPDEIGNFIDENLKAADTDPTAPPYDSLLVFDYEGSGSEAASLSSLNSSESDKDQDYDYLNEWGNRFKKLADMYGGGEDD

blocking of ilEL binding to 16E6.A5 monolayers in 1 mM Ca2+, Mg2+ and Mn2+ (FIG. 3A): 55% | blocking of ilEL binding to 16E6.A5 monolayers in the absence of Ca2+ and Mn2+ (FIG. 3B): 0%
Substance: E4.6 (mouse anti-human E-cadherin, IgG1) (antibody)
